Measured values from article PMC12746484, “Growth-coupled selection of 5-aminolevulinic acid synthetase mutants for 5-aminolevulinic acid biosynthesis in Corynebacterium glutamicum” (Frontiers in Microbiology, 2025).

What was measured:
[1] = system: T1, CC(C)(COP(=O)(O)OP(=O)(O)OC[C@H]1O[C@@H](n2cnc3c(N)ncnc32)[C@H](O)[C@@H]1OP(=O)(O)O)[C@@H](O)C(=O)NCCC(=O)NCCSC(=O)CCC(=O)O; experiment: steady-state kinetics, 5-ALA formation, nonlinear Michaelis-Menten fit; type: biochemical, Rhodobacter capsulatus; settings: 37 °C, Tris pH 7.5, pyridoxal phosphate, co-substrate glycine, succinyl-CoA 5-150 μM
T1 construct: codon-optimized hemA cloned in pET28a, expressed in E. coli BL21(DE3), Ni-NTA purified
Source text: (§1) steady-state kinetics, 5-ALA formation, nonlinear Michaelis-Menten fit on ALAS from Rhodobacter capsulatus SB1003 (hemA^Rc; pET28a-SB)

NCC(=O)O = system: T2, NCC(=O)O; experiment: as above; type: biochemical, Rhodobacter capsulatus; settings: 37 °C, Tris pH 7.5, pyridoxal phosphate, co-substrate succinyl-CoA, glycine 1-40 mM
T2 construct: codon-optimized hemA cloned in pET28a, expressed in E. coli BL21(DE3), Ni-NTA purified
Source text: as §1

Chain of ALAS from Rhodobacter capsulatus SB1003 (hemA^Rc; pET28a-SB) (Rhodobacter capsulatus SB 1003; E27V/F363Y/G105C) (chain, as listed by the source E27V F363Y G105C): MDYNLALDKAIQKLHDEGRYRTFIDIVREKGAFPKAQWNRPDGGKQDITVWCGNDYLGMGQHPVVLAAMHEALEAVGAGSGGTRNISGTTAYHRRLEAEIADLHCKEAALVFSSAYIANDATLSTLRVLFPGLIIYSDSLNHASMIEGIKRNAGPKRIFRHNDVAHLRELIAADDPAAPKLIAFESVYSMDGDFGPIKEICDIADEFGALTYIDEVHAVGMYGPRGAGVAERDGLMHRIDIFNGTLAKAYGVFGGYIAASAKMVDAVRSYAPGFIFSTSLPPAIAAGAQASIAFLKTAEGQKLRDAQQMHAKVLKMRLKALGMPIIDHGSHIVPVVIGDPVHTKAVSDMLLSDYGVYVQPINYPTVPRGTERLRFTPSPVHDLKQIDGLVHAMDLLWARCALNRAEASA
Chain of ALAS from Rhodobacter capsulatus SB1003 (hemA^Rc; pET28a-SB) (Rhodobacter capsulatus SB 1003) (chain, as listed by the source): as the sequence (chain, as listed by the source E27V F363Y G105C) above, with V27E, C105G, Y363F counted along it

Substance | Km [1] [µM] | kcat [1] [s⁻¹] | kcat/Km [1] [M⁻¹ s⁻¹] | Km (NCC(=O)O) [µM] | kcat (NCC(=O)O) [s⁻¹] | kcat/Km (NCC(=O)O) [M⁻¹ s⁻¹]
ALAS from Rhodobacter capsulatus SB1003 (hemA^Rc; pET28a-SB) (Rhodobacter capsulatus SB 1003) | 17.5 ± 2.65 | 2.52 ± 0.22 | 140000 ± 30000 | 2660 ± 260 | 2.52 ± 0.22 | 950 ± 230
ALAS from Rhodobacter capsulatus SB1003 (hemA^Rc; pET28a-SB) (Rhodobacter capsulatus SB 1003; E27V/F363Y/G105C) | 16.88 ± 2.21 | 2.94 ± 0.15 | 170000 ± 20000 | 2130 ± 220 | 2.94 ± 0.15 | 1270 ± 180
